According to US6162627, “Methods of identifying inhibitors of sensor histidine kinases through rational drug design” (University of Medicine and Dentistry of New Jersey, dated 2000):

B1: EnvZ(C)(290-450) (enzyme)
chain: TGQEMPMEMADLNAVLGEVIAAESGYEREIETALYPGSIEVKMHPLSIKRAVANMVVNAARYGNGWIKVSSGTEPNRAWFQVEDDGPGIAPEQRKHLFQPFVRGDSARTISGTGLGLAIVQRIVDNHNGMLELGTSERGGLSIRAWLPVPVTRAQGTTKEG

Experiments:
[1] = target: EnvZ(C)(223-289) (Escherichia coli)
[2] = target: the molecule itself; experiment: gel filtration (21.6 kDa) and dynamic light scattering (26.5 kDa) against a calculated molecular weight of 17.6 kDa

| Molecule | phosphorylation activity on sub-domain A against that of H6-EnvZ(C)H1 [1] [%] | binding result [2] |
| --- | --- | --- |
| EnvZ(C)(290-450) (enzyme) | 5 |  |
| B1 |  | no binding |
